Test results reported in patent US20110038791.

Assays:
[1] = system: Six1 + Eya2 Eya domain (ED) complex; test: FP; settings: DMSO no effect
[2] = system: Six1, near full-length (natural degradation product ending at residue 259); test: FP; settings: 28 kD Six1 with 10 kD fluorescein DNA, single cuvette
[3] = system: Six1 + Eya2 Eya domain (ED) complex; test: EMSA; settings: addition of Eya ED increases affinity
Six1, full-length = target: T1, Six1, full-length (UniProt Q15475); test: EMSA; settings: Six1 alone
T1 sequence: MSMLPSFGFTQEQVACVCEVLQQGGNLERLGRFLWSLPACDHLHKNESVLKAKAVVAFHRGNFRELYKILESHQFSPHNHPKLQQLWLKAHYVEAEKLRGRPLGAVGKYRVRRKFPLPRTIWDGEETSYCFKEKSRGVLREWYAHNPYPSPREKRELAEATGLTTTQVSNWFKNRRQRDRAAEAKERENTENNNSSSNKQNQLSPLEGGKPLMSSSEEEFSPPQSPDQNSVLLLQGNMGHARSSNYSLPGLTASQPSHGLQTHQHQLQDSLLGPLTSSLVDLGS

[4] = system: Six1, near full-length (natural degradation product ending at residue 259); test: EMSA; settings: preliminary estimate

## 5'-fluorescein 16 nt MEF3 dsDNA
[1]
  binding (fold increase in anisotropy): 3
[2]
  binding (fold increase in polarization): > 4

## 18 nt dsDNA containing MEF3 site
[3]
  Kd: 0.3 µM
Six1, full-length
  Kd: 1 µM

## 16 nt DNA containing MEF3 motif
[4]
  Kd: 1 µM
